The text below walks through data of patent US20100240066A1 (MCGILL UNIVERSITY, published 2010).

Where no end group is shown, it is not given here.

Test [1] addresses T1, E-cadherin/Fc chimeric protein (human, UniProt P12830 155-707).
T1 construct: range 155-707; Bought from R&D Systems; also called E-cad/Fc; human E-cadherin/Fc chimeric protein; not shown: Fc region of human IgG1
T1 sequence (looked up): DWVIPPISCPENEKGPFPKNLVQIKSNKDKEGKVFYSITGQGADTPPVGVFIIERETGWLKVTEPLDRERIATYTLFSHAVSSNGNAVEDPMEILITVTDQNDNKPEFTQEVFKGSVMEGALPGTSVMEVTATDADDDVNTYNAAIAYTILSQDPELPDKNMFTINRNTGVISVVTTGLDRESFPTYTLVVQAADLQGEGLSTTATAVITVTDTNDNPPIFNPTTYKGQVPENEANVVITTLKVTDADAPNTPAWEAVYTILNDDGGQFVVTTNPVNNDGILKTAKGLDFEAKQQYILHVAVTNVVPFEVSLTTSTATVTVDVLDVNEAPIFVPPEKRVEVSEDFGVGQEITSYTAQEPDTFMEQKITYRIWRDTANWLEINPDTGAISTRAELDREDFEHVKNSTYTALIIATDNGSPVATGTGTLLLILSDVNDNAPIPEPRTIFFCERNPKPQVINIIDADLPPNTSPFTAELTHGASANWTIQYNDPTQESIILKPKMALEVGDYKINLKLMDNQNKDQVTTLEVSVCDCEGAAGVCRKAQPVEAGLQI
The experiment in a line: phage ELISA, in the absence or presence of calcium. Here is the method:
(§1) The phage clones shown to bind to the N-cadherin/Fc chimeric protein by ELISA were also evaluated for their ability to bind to E-cadherin/Fc and VE-cadherin/Fc chimeric proteins. The phage clones shown to bind to the E-cadherin/Fc chimeric protein by ELISA were also evaluated for their ability to bind to N-cadherin/Fc and VE-cadherin/Fc chimeric proteins. The same ELISA protocol described in the previous section was used to perform this evaluation with the exception that the wells were coated with either 100 ng N-cadherin/Fc, E-cadherin/Fc or VE-cadherin/Fc chimeric protein (R&D Systems, Minneapolis, Minn.).
A general note: ELISA stands for enzyme-linked immunosorbent assay.

The target in test [2] is T2, VE-cadherin/Fc chimeric protein (UniProt P33151 48-593).
T2 construct: Bought from R&D Systems; also called vascular endothelial (VE)-cadherin/Fc chimeric protein; not shown: Fc part not described
T2 sequence (looked up): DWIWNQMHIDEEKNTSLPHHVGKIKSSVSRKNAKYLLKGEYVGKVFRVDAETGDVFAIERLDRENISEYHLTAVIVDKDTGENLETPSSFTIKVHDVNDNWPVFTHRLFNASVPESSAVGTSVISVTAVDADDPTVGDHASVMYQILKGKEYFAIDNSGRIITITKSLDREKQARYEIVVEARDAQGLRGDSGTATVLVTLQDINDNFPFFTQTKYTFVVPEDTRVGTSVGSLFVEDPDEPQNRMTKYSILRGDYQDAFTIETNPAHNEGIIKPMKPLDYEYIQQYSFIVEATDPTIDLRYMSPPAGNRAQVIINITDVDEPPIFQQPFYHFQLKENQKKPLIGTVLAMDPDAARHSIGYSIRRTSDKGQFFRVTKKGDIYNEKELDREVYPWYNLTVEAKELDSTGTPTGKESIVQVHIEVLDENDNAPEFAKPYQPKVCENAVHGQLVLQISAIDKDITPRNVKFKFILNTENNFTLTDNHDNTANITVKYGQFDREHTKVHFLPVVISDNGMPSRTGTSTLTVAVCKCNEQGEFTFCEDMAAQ
The experiment in a line: phage ELISA, in the absence or presence of calcium. Here is the method:
as §1

In test [3] the target is T3, N-cadherin/Fc chimeric protein (human, UniProt P19022 160-724).
T3 construct: range 160-724; Bought from R&D Systems; also called N-cad/Fc; human N-cadherin/Fc chimeric protein; not shown: Fc region of human IgG1
T3 sequence (looked up): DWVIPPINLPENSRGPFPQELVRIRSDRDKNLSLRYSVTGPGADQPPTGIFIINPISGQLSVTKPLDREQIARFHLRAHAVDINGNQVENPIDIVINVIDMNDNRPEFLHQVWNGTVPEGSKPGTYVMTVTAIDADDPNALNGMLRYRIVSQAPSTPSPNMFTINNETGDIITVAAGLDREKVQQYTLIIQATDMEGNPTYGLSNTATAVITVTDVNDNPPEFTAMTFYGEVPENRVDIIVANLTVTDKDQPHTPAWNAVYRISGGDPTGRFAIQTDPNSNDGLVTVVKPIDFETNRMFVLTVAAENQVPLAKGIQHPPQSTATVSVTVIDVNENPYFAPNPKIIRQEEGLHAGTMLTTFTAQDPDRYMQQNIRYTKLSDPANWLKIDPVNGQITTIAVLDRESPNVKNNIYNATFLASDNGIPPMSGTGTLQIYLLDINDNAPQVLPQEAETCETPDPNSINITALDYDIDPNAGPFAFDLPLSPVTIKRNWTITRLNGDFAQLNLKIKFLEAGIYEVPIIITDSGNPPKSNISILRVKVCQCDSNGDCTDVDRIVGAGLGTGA
As to the kind of experiment: phage ELISA, 1.2 mM calcium. Here is the method:
The binding of each clone to the cadherin/Fc chimeric proteins was confirmed by ELISA. Wells of ProBind microtiter plates (Falcon) were coated with either N-cadherin/Fc or E-cadherin/Fc chimeric protein (100 ng/well) or human IgG1 (which contains the Fc fragment) (100 ng/well). After blocking the nonspecific sites with TBS containing 3% BSA and 1.2 mM CaCl₂ for 1 h at 37° C., phage clones (10⁹ pfu) diluted in TBST containing 3% BSA and 1.2 mM CaCl₂ (100 μl/well). Non-coated wells were also used to exclude any phage that bound to the plastic surface. After 1 h incubation at room temperature, wells were washed 3 times with TBST containing 3% BSA and 1.2 mM CaCl₂. M13 phage without any insert were used to control the non-specific binding of the phage itself to the target. Monoclonal anti-M13 antibody conjugated to horseradish peroxidase (Amersham Biosciences, Piscataway, N.J.) was diluted in TBST containing 3% BSA and 1.2 mM CaCl₂ (1:2,000) and added to each well (100 μl/well). After 1 h incubation at room temperature, wells were washed three times with TBST containing 3% BSA and 1.2 mM CaCl₂ and once with TBS containing 1.2 mM CaCl₂. Horseradish peroxidase substrate, TMB (Sigma), was added to each well (100 μl/well and after color development the reaction was stopped by addition of 100 μl 0.5 M sulphuric acid to each well. The intensity of the color was measured at 450 nm.

In test [4] the target is T3, N-cadherin/Fc chimeric protein. As to the kind of experiment: surface plasmon resonance (Biacore), N-cadherin/Fc captured by anti-human IgG, peptide as analyte, 1.2 mM CaCl2, 25 C. Here is the method:
(§2) The binding of representative peptide modulating agents to either N- or VE-cadherin/Fc chimeric proteins was assessed using a BIAcore X™ Biosensor (Pharmacia Ltd., Sweden). Goat anti-human IgG recognizing N- and VE-cadherin/Fc chimeric proteins (R&D Systems, Minneapolis, Minn.) was immobilized on a CM5 sensor chip (Biacore S51) using standard amine-coupling method at 25° C. HBS-P buffer (10 mM HEPES, 0.15 M NaCl, 0.005% p20, pH 7.4) was used as the running buffer. The carboxymethyl dextran surface was activated with a 7 min injection of a 1:1 ratio of 0.4 M EDC and 0.1 M NHS. The goat anti-human IgG (Caltag Lab.) was coupled to the surface with a 7 min injection diluted in 10 mM sodium acetate, pH 5.0 to a final concentration 80 ug/ml. Remaining activated groups were blocked with a 7 min injection of 1 M ethanolamine, pH 8.5. N- and VE-cadherin/Fc chimeric proteins were dissolved in buffer containing 50 mM Tris HCl, 150 mM NaCl, and 1.2 mM CaCl₂ pH 7.5 to a concentration of 0.2 μM and captured on spots 1 and 2 at a flow rate of 30 μl/min for 30 min with resulting density 927 RU for N-cadherin/Fc chimeric protein and 1008 RU for VE-cadherin/Fc chimeric protein.
The linear peptide H-[…]-NH₂ (SEQ ID NO: 16) and the control linear peptide H-[…]-NH₂ (SEQ ID NO: 58) were passed over surfaces coated with captured N- and VE-cadherin/Fc chimeric proteins in running buffer containing 50 mM Tris-HCl, 150 mM NaCl, and 1.2 mM CaCl₂, pH 7.5 at concentrations ranging from 100-1.56 uM. The experiment was performed at a flow rate 90 ul/min at 25° C. […] All responses were referenced for reference surface and blank injections of running buffer.
(§3) The binding of the linear peptide H-[…]-NH₂ (SEQ ID NO: 16) to N- and VE-cadherin/Fc chimeric proteins was analyzed by surface plasma resonance.
In general terms: In SPR one partner is held on a chip, and binding of the other changes the refractive index at the surface.

Test [5] addresses T1, E-cadherin/Fc chimeric protein. As to the kind of experiment: summary table, column Peptide Binds to E-cad/Fc; assay not named.
Test [6] deals with T2, VE-cadherin/Fc chimeric protein. The experiment in a line: surface plasmon resonance (Biacore), chimera captured by anti-human IgG. Here is the method:
as §2, with “protein. […]” for “protein.”
as §3

Test [7] concerns the target T3, N-cadherin/Fc chimeric protein. As to the kind of experiment: summary table, column Peptide Binds to N-cad/Fc; assay not named.

B1: phage clone NoCa1 (peptide)
peptide: WYVCVGAHC
modifications: not fully specified; cysteine pairing not given here; also: displayed on M13 phage pIII
notes: whole phage in the assay
As for B1, the results for the binding result in test [1], in test [2] and in test [3] were “no binding (tested: 10^9 pfu)”, “no binding (tested: 10^9 pfu)” and “binds”, respectively.

B2: phage clone NoCa11 (peptide)
peptide: WQVCVGAHC
modifications: not fully specified; cysteine pairing not given here; also: displayed on M13 phage pIII
notes: whole phage in the assay
As for B2, the binding result is “no binding (tested: 10^9 pfu)” in test [1], “no binding (tested: 10^9 pfu)” in test [2] and “binds” in test [3].
The term Kd denotes the equilibrium constant for the complex coming apart. The koff is a measure of how fast the partners let go of each other. Low readings indicate a long-lived complex, high ones a short-lived complex. Usually kon stands for the second-order rate constant of association. A high value points to faster complex formation. In test [4], H-SWTLYTPSGQSK-NH2 (Synthetic linear peptide) [H-SWTLYTPSGQSK-NH2] had a Kd of 66 µM, a koff of 0.407 s⁻¹ and a kon of 6100 M⁻¹ s⁻¹. Moreover, the binding result in test [5] was “no binding”. For the same molecule, in test [6], the binding result is “no binding (tested: 100-1.56 uM)”.
On to H-SRTLYTPSGQSK-NH2 [H-SRTLYTPSGQSK-NH2], for which the binding result in test [7] was “no binding”; in test [6], “no binding (tested: 100-1.56 uM)”.
